Results taken from IntAct's records for PubMed 10512882.

B1: Focal adhesion kinase 1 (Gallus gallus (Chicken)), Q00944 (parent)
chain: MAAAYLDPNLNHTPSSSAKTHLGTGMERSPGAMERVLKVFHYFENSSEPTTWASIIRHGDATDVRGIIQKIVDCHKVKNVACYGLRLSHLQSEEVHWLHLDMGVSNVREKFELAHPPEEWKYELRIRYLPKGFLNQFTEDKPTLNFFYQQVKNDYMLEIADQVDQEIALKLGCLEIRRSYGEMRGNALEKKSNYEVLEKDVGLRRFFPKSLLDSVKAKTLRKLIQQTFRQFANLNREESILKFFEILSPVYRFDKECFKCALGSSWIISVELAIGPEEGISYLTDKGANPTHLADFNQVQTIQYSNSEDKDRKGMLQLKIAGAPEPLTVTAPSLTIAENMADLIDGYCRLVNGATQSFIIRPQKEGERALPSIPKLANNEKQGVRSHTVSVSETDDYAEIIDEEDTYTMPSTRDYEIQRERIELGRCIGEGQFGDVHQGIYMSPENPAMAVAIKTCKNCTSDSVREKFLQEALTMRQFDHPHIVKLIGVITENPVWIIMELCTLGELRSFLQVRKFSLDLASLILYAYQLSTALAYLESKRFVHRDIAARNVLVSATDCVKLGDFGLSRYMEDSTYYKASKGKLPIKWMAPESINFRRFTSASDVWMFGVCMWEILMHGVKPFQGVKNNDVIGRIENGERLPMPPNCPPTLYSLMTKCWAYDPSRRPRFTELKAQLSTILEEEKLQQEERMRMESRRQVTVSWDSGGSDEAPPKPSRPGYPSPRSSEGFYPSPQHMVQPNHYQVSGYSGSHGIPAMAGSIYPGQASLLDQTDSWNHRPQEVSAWQPNMEDSGTLDVRGMGQVLPTHLMEERLIRQQQEMEEDQRWLEKEERFLVMKPDVRLSRGSIEREDGGLQGPAGNQHIYQPVGKPDHAAPPKKPPRPGAPHLGSLASLNSPVDSYNEGVKIKPQEISPPPTANLDRSNDKVYENVTGLVKAVIEMSSKIQPAPPEEYVPMVKEVGLALRTLLATVDESLPVLPASTHREIEMAQKLLNSDLAELINKMKLAQQYVMTSLQQEYKKQMLTAAHALAVDAKNLLDVIDQARLKMISQSRPH

Variants of: B1
Conditions: with src_chick SRC

Variant	effect of a mutation on the interaction
Y397F	disrupting interaction
Y397F;K454R	disrupting interaction

Results, then the variant that gave them:

effect of a mutation on the interaction	Variant
decreasing interaction	K454R
decreasing interaction	Y576F;Y577F
